Data reported in US20210113678A1 (ENTEROME S A, published 2021).

Tests used:
[1] = molecular target: T1, HLA-A*0201 molecule on human T2 cells (human); experiment: T2 cells expressing HLA-A*0201, anti-HLA-A2-PE, FACS
T1 construct: read out with anti-HLA-A2 antibody BB7.2-PE; also called HLA-A2

[2] = molecular target: T1, HLA-A*0201 molecule on human T2 cells; experiment: as above; remark: listed apart in the source
[3] = molecular target: T2, HLA-A*0201 molecule expressed by the human tumoral cell T2 (human); experiment: T2 cell HLA-A2 stabilisation assay, flow cytometry with anti-HLA-A2 BB7.2-PE
T2 construct: MHC class I on T2 cells; The tested peptide is added from outside; Surface HLA-A2 is read with anti-HLA-A2 antibody BB7.2-PE; also called HLA-A2

B1: EZH2-H2 (peptide)
peptide: SMFRVLIGT
notes: Fragment of human EZH2
mean relative fluorescence intensity at 1.5625 µM peptide [1]: 0 % of HIV peptide
mean relative fluorescence intensity at 3.125 µM peptide [1]: 0 % of HIV peptide
mean relative fluorescence intensity at 6.25 µM peptide [1]: 0 % of HIV peptide
mean relative fluorescence intensity at 25 µM peptide [1]: 13.3 % of HIV peptide
mean relative fluorescence intensity at 100 µM peptide [1]: 78.2 % of HIV peptide
Concentration of peptide that induces 20% of HLA-A2 expression [2]: 39.2 µM
In vitro binding affinity (relative to reference peptide HIV pol 589-597) [2]: 7.8

B2: EZH2-B2 (peptide)
peptide: AVFRVLIPV
mean relative fluorescence intensity at 1.5625 µM peptide [1]: 0 % of HIV peptide
mean relative fluorescence intensity at 3.125 µM peptide [1]: 0 % of HIV peptide
mean relative fluorescence intensity at 6.25 µM peptide [1]: 0.5 % of HIV peptide
mean relative fluorescence intensity at 25 µM peptide [1]: 74.8 % of HIV peptide
mean relative fluorescence intensity at 100 µM peptide [1]: 112 % of HIV peptide
Concentration of peptide that induces 20% of HLA-A2 expression [2]: 8.3 µM
In vitro binding affinity (relative to reference peptide HIV pol 589-597) [2]: 1.7

B3: FOXM1-H (peptide)
peptide: RVSSYLVPI
notes: Fragment of human FOXM1
mean relative fluorescence intensity at 1.5625 µM peptide [1]: 0 % of HIV peptide
mean relative fluorescence intensity at 3.125 µM peptide [1]: 0 % of HIV peptide
mean relative fluorescence intensity at 6.25 µM peptide [1]: 0 % of HIV peptide
mean relative fluorescence intensity at 25 µM peptide [1]: 10.5 % of HIV peptide
mean relative fluorescence intensity at 50 µM peptide [1]: 30.7 % of HIV peptide
mean relative fluorescence intensity at 100 µM peptide [1]: 83.8 % of HIV peptide
Concentration of peptide that induces 20% of HLA-A2 expression [2]: 37.6 µM
In vitro binding affinity (relative to reference peptide HIV pol 589-597) [2]: 3.7

B4: FOXM1-B (peptide)
peptide: RLSSYLVEI
mean relative fluorescence intensity at 1.5625 µM peptide [1]: 0 % of HIV peptide
mean relative fluorescence intensity at 3.125 µM peptide [1]: 0 % of HIV peptide
mean relative fluorescence intensity at 6.25 µM peptide [1]: 0 % of HIV peptide
mean relative fluorescence intensity at 25 µM peptide [1]: 7.6 % of HIV peptide
mean relative fluorescence intensity at 50 µM peptide [1]: 21.3 % of HIV peptide
mean relative fluorescence intensity at 100 µM peptide [1]: 47.5 % of HIV peptide
Concentration of peptide that induces 20% of HLA-A2 expression [2]: 46.7 µM
In vitro binding affinity (relative to reference peptide HIV pol 589-597) [2]: 4.6

B5: IL13RA2-B (peptide)
peptide: FLPFGFILV
binding result [3]: binds

B6: comparative peptide 1A9V (peptide)
peptide: ALPFGFILV
binding result [3]: binds

B7: peptide 1F9M (peptide)
peptide: FLPFGFILM
binding result [3]: binds

B8: FOXM1-H2 (peptide)
peptide: LMDLSTTPL
notes: Fragment of human FOXM1
mean relative fluorescence intensity at 1.5625 µM peptide [1]: 5.3 % of HIV peptide
mean relative fluorescence intensity at 3.125 µM peptide [1]: 0.9 % of HIV peptide
mean relative fluorescence intensity at 6.25 µM peptide [1]: 19.7 % of HIV peptide
mean relative fluorescence intensity at 25 µM peptide [1]: 65.4 % of HIV peptide
mean relative fluorescence intensity at 50 µM peptide [1]: 62.5 % of HIV peptide
mean relative fluorescence intensity at 100 µM peptide [1]: 77.6 % of HIV peptide
Concentration of peptide that induces 20% of HLA-A2 expression [2]: 12.6 µM
In vitro binding affinity (relative to reference peptide HIV pol 589-597) [2]: 2.5

B9: FOXM1-B2 (peptide)
peptide: LMDLSTTEV
mean relative fluorescence intensity at 1.5625 µM peptide [1]: 7.2 % of HIV peptide
mean relative fluorescence intensity at 3.125 µM peptide [1]: 12.7 % of HIV peptide
mean relative fluorescence intensity at 6.25 µM peptide [1]: 33.5 % of HIV peptide
mean relative fluorescence intensity at 25 µM peptide [1]: 98.2 % of HIV peptide
mean relative fluorescence intensity at 50 µM peptide [1]: 91.5 % of HIV peptide
mean relative fluorescence intensity at 100 µM peptide [1]: 105 % of HIV peptide
Concentration of peptide that induces 20% of HLA-A2 expression [2]: 6.7 µM
In vitro binding affinity (relative to reference peptide HIV pol 589-597) [2]: 1.3

B10: IL13RA2-H (peptide)
peptide: WLPFGFILI
notes: Fragment of human IL13RA2
mean relative fluorescence intensity at 1.5625 µM peptide [1]: 3 % of HIV peptide
mean relative fluorescence intensity at 3.125 µM peptide [1]: 3.7 % of HIV peptide
mean relative fluorescence intensity at 6.25 µM peptide [1]: 9.6 % of HIV peptide
mean relative fluorescence intensity at 25 µM peptide [1]: 11.2 % of HIV peptide
mean relative fluorescence intensity at 50 µM peptide [1]: 14.2 % of HIV peptide
mean relative fluorescence intensity at 100 µM peptide [1]: 26.5 % of HIV peptide

B11: TYMS-H (peptide)
peptide: VLEELLWFI
notes: Fragment of human TYMS
mean relative fluorescence intensity at 1.5625 µM peptide [1]: 8.6 % of HIV peptide
mean relative fluorescence intensity at 3.125 µM peptide [1]: 15.3 % of HIV peptide
mean relative fluorescence intensity at 6.25 µM peptide [1]: 26.6 % of HIV peptide
mean relative fluorescence intensity at 25 µM peptide [1]: 38.1 % of HIV peptide
mean relative fluorescence intensity at 50 µM peptide [1]: 40.4 % of HIV peptide
mean relative fluorescence intensity at 100 µM peptide [1]: 50.2 % of HIV peptide
Concentration of peptide that induces 20% of HLA-A2 expression [2]: 4.1 µM
In vitro binding affinity (relative to reference peptide HIV pol 589-597) [2]: 0.3

B12: TYMS-B (peptide)
peptide: SMEELLWFV
mean relative fluorescence intensity at 1.5625 µM peptide [1]: 15.9 % of HIV peptide
mean relative fluorescence intensity at 3.125 µM peptide [1]: 30.4 % of HIV peptide
mean relative fluorescence intensity at 6.25 µM peptide [1]: 36 % of HIV peptide
mean relative fluorescence intensity at 25 µM peptide [1]: 49.3 % of HIV peptide
mean relative fluorescence intensity at 50 µM peptide [1]: 65.7 % of HIV peptide
mean relative fluorescence intensity at 100 µM peptide [1]: 80.9 % of HIV peptide
Concentration of peptide that induces 20% of HLA-A2 expression [2]: 1.1 µM
In vitro binding affinity (relative to reference peptide HIV pol 589-597) [2]: 0.1

B13: TYMS-H2 (peptide)
peptide: FLDSLGFST
mean relative fluorescence intensity at 1.5625 µM peptide [1]: 1.6 % of HIV peptide
mean relative fluorescence intensity at 3.125 µM peptide [1]: 4.5 % of HIV peptide
mean relative fluorescence intensity at 6.25 µM peptide [1]: 6.1 % of HIV peptide
mean relative fluorescence intensity at 25 µM peptide [1]: 32.5 % of HIV peptide
mean relative fluorescence intensity at 50 µM peptide [1]: 37.2 % of HIV peptide
mean relative fluorescence intensity at 100 µM peptide [1]: 50.6 % of HIV peptide
Concentration of peptide that induces 20% of HLA-A2 expression [2]: 9.5 µM
In vitro binding affinity (relative to reference peptide HIV pol 589-597) [2]: 0.8
